Measurements from the Human Domainome abundance scans (Beltran et al. 2025).

B1: Ubiquitin-protein ligase residues 30 to 86; numbered along this chain, Q05086 (parent)
chain: KHLIERYYHQLTEGCGNEACTNEFCASCPTFLRMDNNAAAIKALELYKINAKLCDPH

Variants of: B1
Assay: abundance fitness (aPCA) (normalised: wild type 0, dead -1); higher = more abundant; growth selection in yeast, the domain comes from the species named
Settings: Homo sapiens

Abundance fitness of substitutions, site by site:
A51: G -0.075, L -0.463, I -0.45, V -0.082, E -0.102, T -0.02, W -0.029, K -0.093
A39: Q -0.317, K -0.175, T -0.065, E -0.393, V -0.084, I -0.085, L -0.096, G -0.084, D -0.605, H -0.228, W -0.375, N -0.242, F -0.249, Y -0.239, M -0.065, R -0.053
N50: Y -0.018, V -0.158, C -0.057, Q -0.11, G -0.019, E -0.041, A 0.004, K -0.095, S 0.023, L -0.143, D 0.034, I -0.356, H -0.05, T -0.006, R -0.033, P -0.041, W -0.31
L46: D -0.389, C -0.029, E -0.514, Y -0.312, F -0.063, T -0.278, K -0.754, N -0.341, I -0.056, H 0.035, M -0.13, P -0.528, A -0.107, S -0.095, Q -0.17, V -0.06, G -0.178, W -0.401
P56: S -0.081, W -0.038, G 0.024, C -0.041, Q -0.068, D -0.035, K -0.055, T 0.016, R 0.023, A -0.035, L 0.044, F 0.098, H -0.22
A38: D -0.295, M -0.164, G -0.191, H -0.19, K -0.044, N -0.213, W -0.142, R 0.005, Y 0.08, T -0.07, V 0.029, L 0.025, P -0.006, E -0.108, Q -0.106, C -0.083, I -0.166
N37: C -0.17, S -0.072, H -0.075, F -0.542, Q -0.016, P -0.107, W -0.454, D 0.044, T -0.015, M -0.186, K -0.107, R -0.086, A 0.018
I49: T 0.003, L -0.043
M34: V -0.023, W -0.183, T -0.129, Y -0.035, P -0.042, Q -0.074, S -0.042, N -0.279, R -0.102
L53: M -0.073, Y -0.062, W -0.164, C -0.14, I -0.032, Q 0.04, D -0.353, E -0.068, S -0.097, K -0.071, N -0.433, F -0.048, P -0.23, T -0.109, V -0.056, A -0.098, H -0.191, G -0.199
N36: K 0.013, C -0.019, I -0.11, R 0.055, S 0.044, E 0.007, M -0.181, T -0.027, A -0.042, G -0.036, F -0.046, Y -0.308, W -0.239, L -0.005, V -0.03, Q -0.005, H -0.152
C54: S -0.076, F -0.448, Y -0.94
E45: C -0.276, F -0.221, R -0.064, H -0.184, K -0.129, T -0.288, S -0.067, Y -0.217, P -0.873, W -0.372, M -0.181, N 0.11, Q -0.129, A -0.087, D -0.199, G -0.069
